Data on two sequences can be found in patent US20050136043A1, “TGFbeta signaling inhibitors” (Ludwig Institute for Cancer Research, priority 2003, published 2005).

For test [1], the target named is T1, ActR-I (ALK-2) (Homo sapiens, UniProt Q04771).
T1 sequence (Q04771 21-509): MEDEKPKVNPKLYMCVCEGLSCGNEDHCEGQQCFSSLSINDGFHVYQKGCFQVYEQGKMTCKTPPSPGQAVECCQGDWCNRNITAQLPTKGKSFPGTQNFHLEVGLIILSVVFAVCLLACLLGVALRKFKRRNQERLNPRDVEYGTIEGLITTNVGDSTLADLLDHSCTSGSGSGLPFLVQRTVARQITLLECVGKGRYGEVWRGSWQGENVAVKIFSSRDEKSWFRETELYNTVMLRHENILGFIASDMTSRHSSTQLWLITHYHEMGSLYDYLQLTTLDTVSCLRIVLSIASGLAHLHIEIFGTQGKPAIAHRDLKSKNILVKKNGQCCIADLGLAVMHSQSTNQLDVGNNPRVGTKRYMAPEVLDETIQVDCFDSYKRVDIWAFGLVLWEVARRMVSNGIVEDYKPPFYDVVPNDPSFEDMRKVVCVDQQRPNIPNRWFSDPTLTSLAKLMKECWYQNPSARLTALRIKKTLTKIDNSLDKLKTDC
Description: In vitro kinase assay (autophosphorylation) of receptor expressed in COS-7 cells. Format: biochemical. To be noted: 10 μM peptide, FIG. 5. As for the experimental part: (§1) For in vitro kinase assay of type I and type II TGFβ family receptors, p38α and SAPKα2 kinases, COS-7 cells were transfected with the kinase expression vectors or the control empty pcDNA3 vector using the DEAE-dextran method. Proteins were extracted in a lysis buffer (50 mM Tris-HCl, pH 7.5, 50 mM NaCl, 1% NP-40, 10 μg/mL aprotinin, 0.1 mM PMSF). HA-tagged proteins (ALK1 to ALK7, p38R, SAPKR2) were immunoprecipitated with anti-HA antibody (12CA5; Roche); His6-tagged proteins (type II receptors) were precipitated with Ni-NTA agarose (Qiagen). The precipitates were washed in extraction buffer, with 20 mM imidazole for Ni-NTA agarose-precipitated proteins, and two times with kinase buffer (20 mM HEPES, pH 7.4, 10 mM MgCl2, 2 mM MnCl2, 1 mM DTT). The kinase reaction was initiated by addition of 20 μL of kinase buffer containing 0.5 μCi of [γ-32P]ATP, 5.0 μM ATP, and inhibitory peptides at a final concentration of 10 μM. The reaction was performed at 22° C. for 20 min and terminated by addition of SDS-containing sample buffer and boiling for 5 min. The reaction products were analyzed by SDS-PAGE and exposure in a Fuji X2000 phosphorimager. Equal loading was controlled by immunoblotting aliquots of the samples with a HA probe (Y-11; Santa Cruz) or anti-His antibody (Qiagen).
(§2) To evaluate whether the substrate-mimicking peptides affect kinases of type I and type II reptors of the TGFβ family, we studied the influence of peptides on authophosphorylation of all known mammalian type I receptors [ALK-1, ActR-I (ALK-2), BMPR-IA (ALK-3), ActR-IB (ALK-4), TβR-I (ALK-5), BMPR-IB (ALK-6), and ALK-7], TβRII, ActR-II, BMPR-II, p38R, and SAPKR2 (FIG. 5). The kinases were expressed in COS-7 cells and purified by using specific anti-tag antibodies or Ni-NTA agarose, and kinase activity was tested in the presence of peptides.

Test [2] deals with T2, TβRII (Homo sapiens, UniProt P37173).
T2 construct: made in house; host or cells: COS-7 cells (transfected, Ni-NTA precipitated)
T2 sequence (P37173 23-567, species assumed): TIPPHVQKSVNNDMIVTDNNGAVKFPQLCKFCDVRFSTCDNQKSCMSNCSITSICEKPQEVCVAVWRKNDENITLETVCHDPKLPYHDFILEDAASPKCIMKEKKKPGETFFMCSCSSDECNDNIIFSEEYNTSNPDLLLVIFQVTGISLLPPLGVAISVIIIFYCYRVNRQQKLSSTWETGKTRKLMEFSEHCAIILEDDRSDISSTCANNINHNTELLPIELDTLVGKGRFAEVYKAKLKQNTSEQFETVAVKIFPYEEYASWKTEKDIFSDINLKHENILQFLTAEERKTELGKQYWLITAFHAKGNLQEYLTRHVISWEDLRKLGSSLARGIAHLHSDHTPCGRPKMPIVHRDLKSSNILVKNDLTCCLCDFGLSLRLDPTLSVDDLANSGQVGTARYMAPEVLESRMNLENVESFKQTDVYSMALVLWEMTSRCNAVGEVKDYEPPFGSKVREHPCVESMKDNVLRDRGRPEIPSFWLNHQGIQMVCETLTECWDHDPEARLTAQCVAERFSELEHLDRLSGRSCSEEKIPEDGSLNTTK
Described as above. Format: biochemical. To be noted: 10 μM peptide, FIG. 5. As for the experimental part: as §1, §2

The target of test [3] is T3, BMPR-IA (ALK-3) (Homo sapiens, UniProt P36894).
T3 construct: made in house; host or cells: COS-7 cells (transfected, immunoprecipitated)
T3 sequence (P36894 24-532, species assumed): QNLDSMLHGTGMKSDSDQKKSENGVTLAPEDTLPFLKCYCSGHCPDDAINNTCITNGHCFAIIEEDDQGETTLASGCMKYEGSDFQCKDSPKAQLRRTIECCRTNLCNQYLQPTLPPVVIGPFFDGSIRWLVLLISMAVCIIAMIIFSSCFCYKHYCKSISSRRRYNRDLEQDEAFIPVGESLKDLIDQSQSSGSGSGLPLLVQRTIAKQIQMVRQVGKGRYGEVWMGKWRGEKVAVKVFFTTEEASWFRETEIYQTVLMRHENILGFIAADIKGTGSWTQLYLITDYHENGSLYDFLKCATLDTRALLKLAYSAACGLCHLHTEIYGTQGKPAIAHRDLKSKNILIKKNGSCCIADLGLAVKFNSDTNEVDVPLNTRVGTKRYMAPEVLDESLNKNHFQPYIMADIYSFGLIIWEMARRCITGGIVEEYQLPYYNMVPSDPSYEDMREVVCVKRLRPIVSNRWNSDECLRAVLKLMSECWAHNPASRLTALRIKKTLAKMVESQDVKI
Described as above. Format: biochemical. To be noted: 10 μM peptide, FIG. 5. The method, then: as §1, §2

Test [4] has as its target T4, TβR-I (ALK-5) (Homo sapiens, UniProt P36897).
T4 construct: made in house; host or cells: COS-7 cells (transfected, immunoprecipitated)
T4 sequence (P36897 34-503): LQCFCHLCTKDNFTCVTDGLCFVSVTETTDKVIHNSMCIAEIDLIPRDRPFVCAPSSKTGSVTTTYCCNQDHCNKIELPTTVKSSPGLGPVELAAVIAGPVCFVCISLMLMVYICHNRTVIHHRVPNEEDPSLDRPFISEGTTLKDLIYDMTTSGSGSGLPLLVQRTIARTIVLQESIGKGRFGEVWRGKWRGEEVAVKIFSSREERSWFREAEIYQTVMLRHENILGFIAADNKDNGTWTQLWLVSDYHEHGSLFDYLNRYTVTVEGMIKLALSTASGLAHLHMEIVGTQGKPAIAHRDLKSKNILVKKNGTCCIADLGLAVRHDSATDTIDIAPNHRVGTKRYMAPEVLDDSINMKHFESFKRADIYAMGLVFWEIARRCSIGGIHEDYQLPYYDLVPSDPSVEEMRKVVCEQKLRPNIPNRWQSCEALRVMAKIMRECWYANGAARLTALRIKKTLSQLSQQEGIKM
Described as above. Format: biochemical. To be noted: 10 μM peptide, FIG. 5. As for the experimental part:
as §1, §2

Test [5] concerns Mv1Lu cells. Description: Growth inhibition assay, [3H]thymidine incorporation. Format: cell-based. To be noted: peptide 50 μM, TGFβ1 0.1 ng/ml, 24 hours; for Reversion of the inhibitory action of TGFβ1 on DNA synthesis: FIG. 7. As for the experimental part:
Growth inhibition assay: Growth inhibition assay with MV1Lu cells, using evaluation of [^3H]thymidine incorporation, was performed as described earlier. Briefly, cells were preincubated with peptides for 30 min, and then treated or not with TGFβ1 (0.1 ng/ml) for 24 h. During the last two hours of incubation, [^3H]thymidine was added. Radioactivity incorporated into DNA was measured in a scintillation counter. No cytotoxic effects of peptides were observed after 24 h incubation with cells, as evaluated by observation of cells in a microscope.
To explore whether the antp-Sm2A (SEQ ID NO:2) peptide can interfere with the TGFβ-dependent effects on cells, we performed an assay with Mv1Lu cells, which are widely used in studies of TGFβ effects and are potently growth-inhibited by TGFβ [29]. […] [^3H]thymidine was added to cells for last two hours of incubation, and radioactivity incorporated into DNA was measured.
In general terms: Dividing cells build labelled thymidine or BrdU into new DNA.

For “RQIKIWFQNRRMKWKKTQMGSPSVRCSAMA (listed as Homo sapiens) [antp-Sm2A]”, the “Effect on ActR-I (ALK-2) kinase” value in test [1] is given as “without any effect”. In addition, the “Effect on TβRII kinase” value in test [2] is listed as “without any effect”. Further, the “Effect on BMPR-IA (ALK-3) kinase” value in test [3] is “without any effect”. Further, in test [4], the “Effect on TβR-I kinase” value is “inhibited”. Besides, in test [5], the “Inhibition of [3H]thymidine incorporation in response to TGFβ1” value was determined as 26% and the “Reversion of the inhibitory action of TGFβ1 on DNA synthesis” value is recorded as “reverted to a significant extent”.

Take “RQIKIWFQNRRMKWKKTQMGSPSVRCSSMS (listed as Homo sapiens) [antp-Sm2S, penetratin fused to the C-terminus of wild-type Smad2]”: the “Effect on ActR-I (ALK-2) kinase” value in test [1] was “without any effect”. Also, the “Effect on TβRII kinase” value in test [2] was “without any effect”. Further, the “Effect on BMPR-IA (ALK-3) kinase” value in test [3] is listed as “without any effect”. Also, the “Effect on TβR-I kinase” value in test [4] is given as “inhibited”. Besides, the “Reversion of the inhibitory action of TGFβ1 on DNA synthesis” value in test [5] is listed as “reverted to a significant extent”.
